Assay results reported in patent US20020037840A1 (GENETICS INSTITUTE, published 2002).

T1: full length form of human PSGL-1 (human, UniProt Q14242 42-412)
T1 construct: whole, on cells; Expressed whole in COS cells and precipitated from the cell lysate with the biotinylated anti-PSGL-1 antibody 2G3; also called P-selectin glycoprotein ligand; CD162
T1 sequence (looked up): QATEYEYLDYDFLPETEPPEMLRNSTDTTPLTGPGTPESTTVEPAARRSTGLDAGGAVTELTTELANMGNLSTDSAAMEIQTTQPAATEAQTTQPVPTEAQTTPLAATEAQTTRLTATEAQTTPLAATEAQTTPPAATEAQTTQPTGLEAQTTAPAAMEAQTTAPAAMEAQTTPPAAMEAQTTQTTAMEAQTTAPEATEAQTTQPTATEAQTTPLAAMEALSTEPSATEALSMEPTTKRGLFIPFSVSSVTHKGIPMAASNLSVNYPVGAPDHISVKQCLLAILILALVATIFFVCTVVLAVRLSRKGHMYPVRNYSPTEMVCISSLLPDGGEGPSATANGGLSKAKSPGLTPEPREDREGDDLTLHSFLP

B1: T7-tagged truncated SLIC-1 protein comprising amino acid residues 1-88 (other)
chain: MASMTGGQQMGMASPEHPGSPGCMGPITQCTARTQQEAPATGPDLPHPGPDGHLDTHSGLSSNSSMTTRELQQYWQNQKCRWKHVKLLFEIASARIEER
notes: also called T7SLIC-1AA88; encoded by PED.T7U5AA88
B2: T7-tagged truncated SLIC-1 protein comprising amino acid residues 1-160 (other)
chain: MASMTGGQQMGMASPEHPGSPGCMGPITQCTARTQQEAPATGPDLPHPGPDGHLDTHSGLSSNSSMTTRELQQYWQNQKCRWKHVKLLFEIASARIEERKVSKFVVYQIIVIQTGSFDNNKAVLERRYSDFAKLQKALLKTFREEIEDVEFPRKHLTGNFAEEMICERRRA
notes: Made with a linker; also called T7SLIC-1AA160; encoded by pED.T7U5AA160

Biological target: T1, full length form of human PSGL-1
Test: co-immunoprecipitation from COS cell lysates with anti-PSGL-1 antibody 2G3, anti-T7 Western blot
Method: COS cells were transfected with T7-tagged forms of SLIC-1 as described in Example 3. Vector pMT-PL85A (Genetics Institute) was included in a subset of samples to transiently overexpress the full length form of human PSGL-1. Cell lysis was carried out as described above in 900 μL/dish of lysis buffer consisting of 20 mM Tris-HCl, pH 7.4, 137 mM NaCl, 0.05% Triton-X and protease inhibitors (Hildt, E and Oess, S J 1999 J. Exp. Med. 189(11): 1707-1714). A small volume of cleared cell lysate was used for Western Blotting to detect overexpressed protein in the whole cell lysate and for spectrophotometric measurement of the protein content. A volume of 300 μL of each lysate was used for co-immunoprecipitation studies with either 2.5 μg of biotinylated monoclonal mouse anti-PSGL-1 antibody (antibody 2G3, Genetics Institute) or a biotinylated control antibody (SIGMA). The samples were agitated at 4° C. for 5 hours, and immuncomplexes were precipitated with streptavidin agarose beads (Pierce) under the same conditions for 1 hour. […] The presence of T7-tagged SLIC-1 protein in the samples was detected by Western blot analysis using an anti-T7 Horse Radish Peroxidase LumiBlot Kit (Novagen) according to the manufacturer's instructions.

| Binder | binding result |
| --- | --- |
| B1 | no binding |
| B2 | no binding |
